{"source": "IntAct's records for PubMed 18680311", "biological_target": "sh3k1_human SH3KBP1 (UniProt Q96B97)", "data": [{"substance": "Polyubiquitin-C (Homo sapiens) (from UniProt P0CG48) K6E", "values": [{"measurement": "effect of a mutation on the interaction", "result": "decreasing interaction"}]}]}
